Experimental data as given in paper doi:10.1101/2025.02.16.638521 (bioRxiv, 2025).
One block for each binder: values may come before it.

Columns and labels:
[1] = target: full-length Grb2 (Grb2^FL) (human, UniProt P62993 1-217); experiment: SEC-MALS
[2] = target: T1, Themis^1-563 (truncated Themis, residues 1-563) (human, UniProt Q8N1K5); experiment: cryo-EM structure
[3] = target: tagless Themis^1-563 (co-expressed with His-tagged Grb2^FL) (human, UniProt Q8N1K5); experiment: cryo-EM structure
[4] = target: Themis^1-563-Grb2^FL complex (co-expressed, pre-formed) (human, UniProt Q8N1K5;P62993); experiment: SEC-MALS
[5] = target: T1, Themis^1-563 (truncated Themis, …); experiment: BLI

stoichiometry N [1]: 1
B1: tagless Themis^1-563 (co-expressed with His-tagged Grb2^FL) (domain or fragment)
chain: MALSLEEFVHSLDLRTLPRVLEIQAGIYLEGSIYEMFGNECCFSTGEVIKITGLKVKKIIAEICEQIEGCESLQPFELPMNFPGLFKIVADKTPYLTMEEITRTIHIGPSRLGHPCFYHQKDIKLENLIIKQGEQIMLNSVEEIDGEIMVSCAVARNHQTHSFNLPLSQEGEFYECEDERIYTLKEIVEWKIPKNRTRTVNLTDFSNKWDSTNPFPKDFYGTLILKPVYEIQGVMKFRKDIIRILPSLDVEVKDITDSYDANWFLQLLSTEDLFEMTSKEFPIVTEVIEAPEGNHLPQSILQPGKTIVIHKKYQASRILASEIRSNFPKRHFLIPTSYKGKFKRRPREFPTAYDLEIAKSEKEPLHVVATKAFHSPHDKLSSVSVGDQFLVHQSETTEVLCEGIKKVVNVLACEKILKKSYEAALLPLYMEGGFVEVIHDKKQYPISELCKQFRLPFNVKVSVRDLSIEEDVLAATPGLQLEEDITDSYLLISDFANPTECWEIPVGRLNMTVQLVSNFSRDAEPFLVRTLVEEITEEQYYMMRRYESSASHPPPRPPKHPSV

binding result [2]: binds
binding result [3]: binds
B2: PMb256 (Pro-Macrobody of Nb256) (VHH)
VHH: QVQLQESGGGLVQAGGSLRLSCAASGRTFSTYAMGWFRQAPGKEREFVAAILWSDGSTYYADSVKGRFTISRDNAKNTVYLQMNSLKPEDTAVYYCAADYTGVRYDYWGQGTQVTVPP

binding result [4]: binds
binding result [5]: binds
B3: Nb256 (Themis-specific single domain VHH camelid antibody fragment) (VHH)
VHH: QVQLQESGGGLVQAGGSLRLSCAASGRTFSTYAMGWFRQAPGKEREFVAAILWSDGSTYYADSVKGRFTISRDNAKNTVYLQMNSLKPEDTAVYYCAADYTGVRYDYWGQGTQVTVPP
